Patent US20210277110A1 (Janssen / Centocor, published 2021)
Positions count from the first letter of the chain named. Read-outs that look alike come from different tables or passages of the source.

T1: Extracellular domain of cyno PD1 (cPD1-ECD) (Macaca fascicularis (cynomolgus))
T1 construct: Expressed with a hexahistidine tag or as Fc fusion; also called cynoPD1-ECD; cynoPD-1-ECD
T1 chain: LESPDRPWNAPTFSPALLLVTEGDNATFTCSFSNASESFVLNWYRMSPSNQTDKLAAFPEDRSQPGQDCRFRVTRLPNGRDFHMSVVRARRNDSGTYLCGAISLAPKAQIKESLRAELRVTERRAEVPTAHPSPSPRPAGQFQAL

B1: PD1B162 (antibody, human IgG2, kappa, V domains shown)
VH: QVQLVQSGAEVKKPGSSVKVSCKASGGTFSSYAISWVRQAPGQGLEWMGGIIPIFDTANYAQKFQGRVTITADESTSTAYMELSSLRSEDTAVYYCARPGLAAAYDTGNLDYWGQGTLVTVSS
VL: EIVLTQSPATLSLSPGERATLSCRASQSVDSYLAWYQQKPGQAPRLLIYDASNRATGIPARFSGSGSGTDFTLTISSLEPEDFAVYYCQQREYWPLTFGQGTKVEIKR
notes: IgG2sigma/kappa; VH 42, VL 52; also called PD1H131/PD1L67
B2: PD1B164 (antibody, human IgG2, kappa, V domains shown)
VH: B1 VH
VL: B1 VL with D30R, N53Y, E92D
notes: IgG2sigma/kappa; VH 42, VL 53; also called PD1H131/PD1L71
B3: TM3B113 (antibody, V domains shown)
VH: EVQLLESGGGLVQPGGSLRLSCAASGFTFSDYWMSWVRQAPGKGLEWVSVIKYSGGSKYYADSVKGRFTISRDNSKNTLYLQMNSLRAEDTAVYYCAKELEGVFDYWGQGTLVTVSS
VL: EIVLTQSPGTLSLSPGERATLSCRASQSVSNSTLAWYQQKPGQAPRLLIYTASSRATGIPDRFSGSGSGTDFTLTISRLEPEDFAVYYCQQSYTSPWTFGQGTKVEIK
notes: also called TM3H65/TM3L12
B4: TM3B196 (antibody, V domains shown)
VH: QVQLKESGPGLVAPSQSLSITCTISGFSLTSYGVHWVRQPPGKGLEWLVVIWSDGSTTYNSALKSRLSISKDNSKSQVFLKMNSLQTDDTAMYYCARQANYRYDSAMDYWGQGTSVTVSS
VL: DIQMTQSPASLAVSLGQRATISCKASQSVDYDGDSYMNWYQQKPGQPPKLLIYTAANLQSGIPARFSGSGSGTDFTLNIHPVEEEDAATYYCQQSNEDPFTFGSGTKLEIK
notes: Mouse-derived variable domains; also called TM3H102/TM3L64
B5: PD1B175 (antibody, V domains shown)
VH: QVQLVQSGAEVKKPGSSVKVSCKASGGTFKSYVIHWVRQAPGQGLEWMGGIIPIFGTANYAQKFQGRVTITADESTSTAYMELSSLRSEDTAVYYCARGYVRATGMLDYWGQGTLVTVSS
VL: EIVLTQSPATLSLSPGERATLSCRASQSVSSYLAWYQQKPGQAPRLLIYDASNRATGIPARFSGSGSGTDFTLTISSLEPEDFAVYYCQQRSNWPLTFGQGTKVEIK
notes: Tested as IgG2sigma; also called PD1H163/PH9L3
B6: PD1B196 (antibody, V domains shown)
VH: B1 VH with N109S
VL: B5 VL with S30R, S92N, N93Y
notes: also called PD1H170/PD1L148
B7: PD1B201 (antibody, V domains shown)
VH: B5 VH with K30S, S31D, H35S, F55Y, Y100T, V101L, R102D, A103R, M106H
VL: B5 VL with S31N, S92N, N93Y
notes: also called PD1H164/PD1L190
B8: TM3B193 (antibody, V domains shown)
VH: EVQLQQSGAELVKPGASVKLSCTASGFHIKDTYLHWVKQRPEQGLEWIGRIDPTNGNIKYDPKFQGKATITSDTSSNTAYLQLSSLTSEDTAVYYCARPYYGFFDYWGQGTTLTVSS
VL: DIVMTQSHKFMSTSVGDRVSITCKASQDVNTAVAWYQQKPGQSPKLLIYSATYRYTGVPDRFTGSGSGTDFTFTISSVQAEDLAVYYCQQHYSTPYTFGSGTKLEIK
notes: Mouse-derived variable domains; also called TM3H99/TM3L52

Assays:
[1] = target: T2, Full length human PD1 (huPD1) on cells (human, UniProt Q15116 25-288); experiment: flow cytometry, PHA-stimulated Jurkat cells
T2 construct: on T cells of human donors in the MLR and CMV assays (functional); also called PD-1 on Jurkat cells
T2 sequence (Q15116 25-288 limits assumed): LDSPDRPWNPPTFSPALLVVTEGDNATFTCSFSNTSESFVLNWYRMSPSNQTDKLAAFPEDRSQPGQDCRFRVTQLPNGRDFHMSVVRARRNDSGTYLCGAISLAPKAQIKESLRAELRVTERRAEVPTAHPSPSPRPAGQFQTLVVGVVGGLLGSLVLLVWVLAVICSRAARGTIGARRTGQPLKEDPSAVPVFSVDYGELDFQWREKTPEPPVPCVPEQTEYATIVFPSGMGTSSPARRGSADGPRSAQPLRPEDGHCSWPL
Protocol: Jurkat cells were stimulated overnight with 20 ng/ml of PHA, harvested, washed, and checked for viability. The cells were then incubated at 6-10° C. for 45-60 minutes with various concentrations of test antibodies, washed and incubated at 6-10° C. for 45-60 minutes with FITC-labeled goat anti-human IgG. The cells were washed and fixed with BD Cytofix, refrigerated overnight and analyzed on a MACSQuant flow cytometer. The percentage of PD-1 positive cells at each antibody concentration was plotted vs log of the antibody concentration and EC₅₀ values were generated in Prism.

[2] = target: T3, Extracellular domain of human PD1 (huPD1-ECD) (human, UniProt Q15116 25-169, biotinylated in the ligand inhibition assay (sites not given)); experiment: SPR ProteOn, captured mAb, huPD1-ECD analyte
T3 construct: Expressed with a hexahistidine tag or as Fc fusion; also called biotinylated PD-1
T3 sequence (Q15116 25-169 limits assumed): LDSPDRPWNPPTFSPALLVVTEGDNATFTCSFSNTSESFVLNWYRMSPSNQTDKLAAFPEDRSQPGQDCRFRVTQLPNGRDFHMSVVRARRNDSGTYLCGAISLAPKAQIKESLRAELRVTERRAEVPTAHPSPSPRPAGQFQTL

[3] = target: T1, Extracellular domain of cyno PD1 …; experiment: SPR ProteOn, cynoPD1-ECD; RANGE low replicate
[4] = target: T1, Extracellular domain of cyno PD1 …; experiment: SPR ProteOn, captured mAb, cynoPD1-ECD analyte
[5] = target: T1, Extracellular domain of cyno PD1 …; experiment: SPR ProteOn, cynoPD1-ECD; RANGE high replicate
Protocol: (§1) Affinity measurements using Surface Plasmon Resonance (SPR) were performed using a ProteOn XPR36 system. A biosensor surface was prepared by coupling a mixture of anti-IgG Fc modified alginate polymer layer surface of a GLC chip using the manufacturer instructions for amine-coupling chemistry. […] The collected data were processed and fitted to a Langmuir 1:1 binding model. The result for each mAb was reported in the format of kₒₙ (On-rate), koff (Off-rate) and KD (equilibrium dissociation constant).
(§2) STDEV were calculated for 3 or more replicates generated for human and cyno proteins. If less than 3 replicates were calculated, RANGE was indicated. RANGE is defined as the low and high values for the replicates tested. For samples in the Table 10 or Table 11 without value indicated in RANGE or STDEV, only one experiment was performed.

[6] = target: T3, Extracellular domain of human PD1 …; experiment: MSD ligand inhibition, competitor coated cynoPDL1-ECD
[7] = target: T1, Extracellular domain of cyno PD1 …; experiment: SPR ProteOn, cynoPD1-ECD; RANGE low replicate; RANGE low replicate
Protocol: as §1
STDEV were calculated for 3 or more replicates generated for human and cyno proteins. If less than 3 replicates were calculated, RANGE was indicated. RANGE is defined as the low and high values for the replicates tested.

[8] = target: T1, Extracellular domain of cyno PD1 …; experiment: SPR ProteOn, cynoPD1-ECD; RANGE high replicate; RANGE high replicate
Protocol: as §1, §2

[9] = target: T4, recombinant human TIM-3-Fc fusion protein (huTIM-3-Fc) (human, UniProt Q8TDQ0 22-200); experiment: competition ELISA on coated Fc-TIM-3, competitor galectin-9
T4 construct: range 22-200; Bought from R&D Systems (NS0-derived); Deglycosylated for HDX-MS; also called recombinant human Fc-TIM-3 chimera; TIM-3 IgG1 Fc Chimera; not shown: IgG1 Fc of the bought chimera

[10] = target: T2, Full length human PD1 (huPD1) on cells; experiment: cell-based or functional assay
[11] = target: T3, Extracellular domain of human PD1 …; experiment: SPR ProteOn, captured mAb, huPD1-ECD analyte; remark: listed apart in the source
[12] = target: T1, Extracellular domain of cyno PD1 …; experiment: SPR ProteOn, captured mAb, cynoPD1-ECD analyte

Binder	EC50 [1]	Kd [2]	koff [2]	kon [2]	Kd [3]	kon [3]	Kd [4]	koff [4]	kon [4]	Kd [5]	percentage ligand not blocked at 1 µg/ml [6]	percentage ligand not blocked at 10 µg/ml [6]	koff [7]	koff [8]	Galectin 9 Inhibition, % inhibition (maximal) [9]	further results
B1	0.05 µg/mL	5.95 nM	0.00386 s⁻¹	649000 M⁻¹ s⁻¹	2.5 nM	384000 M⁻¹ s⁻¹	2.53 nM	0.000979 s⁻¹	387000 M⁻¹ s⁻¹	2.6 nM	7%	6%	0.000959 s⁻¹	0.000998 s⁻¹		kon [5]: 389000 M⁻¹ s⁻¹
B2	0.06 µg/mL	2.92 nM	0.00131 s⁻¹	448000 M⁻¹ s⁻¹	1.06 nM	267000 M⁻¹ s⁻¹	1.07 nM	0.000287 s⁻¹	267000 M⁻¹ s⁻¹	1.09 nM	6%	3%	0.000282 s⁻¹	0.000291 s⁻¹		kon [5]: 267000 M⁻¹ s⁻¹
B3															75.6%	
B4															57%	
B5	0.09 µg/mL	23 nM	0.00972 s⁻¹	422000 M⁻¹ s⁻¹	26 nM	198000 M⁻¹ s⁻¹	30 nM	0.0064 s⁻¹	214000 M⁻¹ s⁻¹	34 nM	6%	5%	0.00606 s⁻¹	0.00673 s⁻¹		kon [8]: 230000 M⁻¹ s⁻¹
B6																CMV EC50, nM (IFN-γ induction) [10]: 0.31 nM; MLR EC50, nM (IFN-γ induction) [10]: 0.14 nM; Kd [11]: 0.41 nM; koff [11]: 0.000366 s⁻¹; kon [11]: 883000 M⁻¹ s⁻¹; Kd [12]: 0.58 nM; koff [12]: 0.000176 s⁻¹; kon [12]: 303000 M⁻¹ s⁻¹
B7																CMV EC50, nM (IFN-γ induction) [10]: 2.6 nM; Kd [11]: 1.12 nM; koff [11]: 0.000957 s⁻¹; kon [11]: 858000 M⁻¹ s⁻¹; Kd [12]: 0.96 nM; koff [12]: 0.000293 s⁻¹; kon [12]: 305000 M⁻¹ s⁻¹
B8															47.4%	
